Laboratory results reported in paper PMC3828642, “1-Aminocyclopropane-1-carboxylic acid oxidase reaction mechanism and putative post-translational activities of the ACCO protein” (AoB Plants, 2013).

Substrate: NC1(C(=O)O)CC1
Assay: purified protein
Conditions: Fe(II), ascorbate, bicarbonate active-site Fe(II); Arg175, Arg244 and Ser246 affect ACC binding

B1: 1-aminocyclopropane-1-carboxylic acid oxidase (ACCO1) (Malus domestica) (protein)
chain: MATFPVVDLSLVNGEERAATLEKINDACENWGFFELVNHGMSTELLDTVEKMTKDHYKKTMEQRFKEMVAAKGLDDVQSEIHDLDWESTFFLRHLPSSNISEIPDLEEEYRKTMKEFAVELEKLAEKLLDLLCENLGLEKGYLKKVFYGSKGPNFGTKVSNYPPCPKPDLIKGLRAHSDAGGIILLFQDDKVSGLQLLKDGEWVDVPPMHHSIVINLGDQIEVITNGKYKSVMHRVIAQSDGTRMSIASFYNPGNDSFISPAPAVLEKKTEDAPTYPKFVFDDYMKLYSGLKFQAKEPRFEAMKAKESTPVATA
- Km: 51 µM
